Assay results reported in PMC10914587.

Key:
sclerostin = sclerostin (UniProt Q9BQB4 24-213); test: BLI
[1] = target: T1, sclerostin loop 3-6 (sites 127-128 mutated) (UniProt Q9BQB4 135-169, G151A;E152A); test: BLI
T1 chain: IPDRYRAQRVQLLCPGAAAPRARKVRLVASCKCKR

sclerostin, sequence (Q9BQB4 24-213): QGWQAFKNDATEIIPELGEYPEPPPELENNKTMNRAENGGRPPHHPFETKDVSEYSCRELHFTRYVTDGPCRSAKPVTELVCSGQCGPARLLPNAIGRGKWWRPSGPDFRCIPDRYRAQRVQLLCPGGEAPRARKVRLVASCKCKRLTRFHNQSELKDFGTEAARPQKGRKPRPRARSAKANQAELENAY

CGGGGTGTGGGTTCGTCGTTAGCTTGATTTGGCAGCTGCC (ssDNA) [Aptscl56]
Kd (sclerostin): 68.6 nM
binding result [1]: no binding
